Like-named read-outs stand apart in the source and are kept apart here. One block for each substance: values may come before it.
Tests used:
SIP (Homo sapiens) = SIP (Homo sapiens) (UniProt Q9HB71); details: cited from earlier work
[1] = molecular target: Myelin-associated glycoprotein (Homo sapiens) (UniProt P20916); details: cited from earlier work
[2] = molecular target: TRTK-12 TRTK-12 (Homo sapiens) (UniProt P52907); details: cited from earlier work
S100B [3] = molecular target: S100B (UniProt P04271); test: NMR titration
S100B [4] = molecular target: S100B (UniProt P04271); test: NMR titration; remark: listed apart in the source
[5] = molecular target: RAGE 129-336 (Homo sapiens) (UniProt Q15109); details: cited from earlier work
[6] = molecular target: p53 362-393 (Homo sapiens) (UniProt P04637); details: cited from earlier work
Sequence of p53 362-393 (Homo sapiens) (P04637 362-393): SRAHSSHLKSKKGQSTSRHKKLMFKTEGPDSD

Sequence of S100B (UniProt P04271) (P04271 2-92): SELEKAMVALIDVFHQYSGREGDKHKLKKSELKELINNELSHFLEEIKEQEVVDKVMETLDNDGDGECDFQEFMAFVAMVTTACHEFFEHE
Sequence of S100B (from UniProt P04271) (P04271 2-92): as above
Sequence of S100A2 (P29034 whole entry): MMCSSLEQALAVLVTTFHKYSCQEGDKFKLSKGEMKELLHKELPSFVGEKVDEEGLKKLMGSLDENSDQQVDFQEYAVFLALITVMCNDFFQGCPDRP
Sequence of SIP (Homo sapiens) (Q9HB71 2-228): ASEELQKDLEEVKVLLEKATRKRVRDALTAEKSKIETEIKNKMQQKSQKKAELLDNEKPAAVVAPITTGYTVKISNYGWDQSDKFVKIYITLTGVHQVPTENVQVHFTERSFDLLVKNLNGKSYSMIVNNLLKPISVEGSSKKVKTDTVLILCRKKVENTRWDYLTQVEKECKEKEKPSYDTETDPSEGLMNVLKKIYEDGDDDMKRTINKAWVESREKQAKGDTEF
Sequence of Myelin-associated glycoprotein (Homo sapiens) (P20916 20-626): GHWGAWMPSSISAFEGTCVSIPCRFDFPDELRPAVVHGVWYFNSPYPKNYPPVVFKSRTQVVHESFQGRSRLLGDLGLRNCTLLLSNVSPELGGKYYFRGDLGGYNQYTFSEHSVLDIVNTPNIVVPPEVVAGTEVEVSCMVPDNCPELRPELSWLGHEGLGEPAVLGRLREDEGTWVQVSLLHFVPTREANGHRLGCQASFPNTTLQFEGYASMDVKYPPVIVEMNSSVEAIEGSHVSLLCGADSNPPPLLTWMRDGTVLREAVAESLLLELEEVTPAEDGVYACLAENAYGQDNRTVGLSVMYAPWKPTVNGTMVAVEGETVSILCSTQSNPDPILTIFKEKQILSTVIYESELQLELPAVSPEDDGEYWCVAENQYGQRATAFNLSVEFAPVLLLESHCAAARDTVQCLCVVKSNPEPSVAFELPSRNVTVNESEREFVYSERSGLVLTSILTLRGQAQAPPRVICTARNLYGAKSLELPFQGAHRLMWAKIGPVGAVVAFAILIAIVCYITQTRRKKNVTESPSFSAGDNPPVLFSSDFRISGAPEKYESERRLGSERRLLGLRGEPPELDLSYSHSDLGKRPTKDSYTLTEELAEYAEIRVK
Sequence of S100A12 (P80511 2-92): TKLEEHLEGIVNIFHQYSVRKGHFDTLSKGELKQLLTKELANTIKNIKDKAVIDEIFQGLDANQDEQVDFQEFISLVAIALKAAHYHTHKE
Sequence of RAGE 129-336 (Homo sapiens) (Q15109 129-336): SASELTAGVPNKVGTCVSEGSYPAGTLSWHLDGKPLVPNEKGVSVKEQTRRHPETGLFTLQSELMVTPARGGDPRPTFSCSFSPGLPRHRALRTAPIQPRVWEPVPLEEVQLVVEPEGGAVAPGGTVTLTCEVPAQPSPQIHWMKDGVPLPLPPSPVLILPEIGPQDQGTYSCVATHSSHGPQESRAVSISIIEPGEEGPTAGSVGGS

Substance: S100B (from UniProt P04271)
Kd (SIP (Homo sapiens)): 5 µM
Kd [1]: 7 µM
Kd [2]: 300 nM

Kd (S100B [3]): 149 µM
Kd (S100B [4]): 148 µM
Substance: IC3-M28 (from UniProt P61169-2 288-315) (peptide)

Substance: S100A12 (from UniProt P80511)
Kd [5]: 140 µM

Kd (S100B [3]): 98 µM
Substance: IC3-C30 (from UniProt P61169-2 316-345) (peptide)

Substance: S100A2 (from UniProt P29034)
Kd [6]: 106 µM
